Assay results published in the supplement of paper PMC7877785.
± gives the uncertainty stated by the source.

Experiment: self-splicing fitness, log relative to wild type (ln ratio); higher = more splicing; Tetrahymena group I intron in knt gene, E. coli kanamycin selection, DiMSum; sequences stand for … in CUCUCU…GGAGGGAAAAGUUAUCAGGCAUGCACCUGGUAGCUAGUCUUUAAACCAAUAGAUUGCAUCGGUUUAAAAGGCAAGACCGUCAAAUUGCGGGAAAGGGGUCAACAGCCGUUCAGUACCAAGUCUCAGGGGAAACUUUGAGAUGGCCUUGCAAAGGGUAUGGUAAUAAGCUGACGGACAUGGUCCUAACCACGCAGCCAAGUCCUAAGUCAACAGAUCUUCUGUUGAUAUGGAUGCAGUUCACAGACUAAAUGUCGGUCGGGGAAGAUGUAUUCUUCUCAUAAGAUAUAGUCGGACCUCUCCUUAAUGGGAGCUAGCGGAUGAAGUGAUGCAACACUGGAGCCGCUGGGAACUAAUUUGUAUGCGAAAGUAUAUUGAUUAGUUUUGGAGUACUCGUGGUCG
How it was run: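 Colonies from six replicate transformations of E. coli BL21(DE3) were pooled and amplicon-sequenced on an Illumina HiSeq 2500. The library placed an intron with all eight P1ex-region nucleotides randomised inside the knt kanamycin-resistance gene on pET-22b(+), and cells grew overnight at 37°C or 30°C on LB agar with or without 25 μg/mL kanamycin (plus 100 μg/mL carbenicillin, 50 μM IPTG, 0.2% rhamnose). Fitness is the DiMSum error-weighted combination of wild-type-normalised replicate fold changes, kanamycin versus none.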

Row | Sequence | self-splicing fitness (ln) (30 °C) | self-splicing fitness (ln) (37 °C)
1 | UCUCAGCAAUAUUACGCGAA | -2.12 ± 0.17 | -1.85 ± 0.21
2 | CUCCAGCAAUAUUACGACUU | -3.85 ± 0.26 | -2.15 ± 0.19
3 | CGCCAGCAAUAUUACGCUAC | -3.74 ± 0.36 | -2.58 ± 0.28
4 | CCUAAGCAAUAUUACGAAAG | -1.75 ± 0.18 | 0.000192 ± 0.18
5 | CUCGAGCAAUAUUACGGCCA | -2.34 ± 0.24 | -3.47 ± 0.35
6 | AGGCAGCAAUAUUACGCAUU | -2.24 ± 0.13 | -0.577 ± 0.1
7 | CCCUAGCAAUAUUACGUCUU | -2.95 ± 0.13 | -2.54 ± 0.25
8 | CGUGAGCAAUAUUACGGGAU | -3.49 ± 0.22 | -2.24 ± 0.21
9 | CGGGAGCAAUAUUACGUGCG | -2.41 ± 0.46 | -1.33 ± 0.43
10 | CGACAGCAAUAUUACGCAAG | -1.28 ± 0.081 | -0.83 ± 0.097
11 | AUCGAGCAAUAUUACGUAAG | -2.16 ± 0.44 | -1.61 ± 0.3
12 | GAUGAGCAAUAUUACGGAGU | -3.16 ± 0.26 | -2.71 ± 0.38
13 | CACGAGCAAUAUUACGAAGA | -2.89 ± 0.22 | -3.38 ± 0.27
14 | UUCUAGCAAUAUUACGUUCA | -0.579 ± 0.16 | -1.11 ± 0.18
15 | UUAGAGCAAUAUUACGAGUU | – | -2.05 ± 0.39
16 | AGUAAGCAAUAUUACGGAAC | -1.82 ± 0.25 | -2.6 ± 0.27
17 | AUUCAGCAAUAUUACGAGCG | -1.08 ± 0.078 | -0.441 ± 0.1
18 | GCCCAGCAAUAUUACGUAAC | -0.899 ± 0.074 | -0.153 ± 0.1
19 | UUACAGCAAUAUUACGUUGG | -2.6 ± 0.12 | -1.69 ± 0.13
20 | AGUAAGCAAUAUUACGCUGC | -2.97 ± 0.29 | –
21 | CCCGAGCAAUAUUACGGGUC | -4.34 ± 0.28 | -2.12 ± 0.23
22 | GCUAAGCAAUAUUACGGUGA | -0.864 ± 0.073 | -0.0497 ± 0.077
23 | GCCAAGCAAUAUUACGGGCA | -2.12 ± 0.14 | -0.482 ± 0.12
24 | CAUAAGCAAUAUUACGUGGU | -3.76 ± 0.17 | -3.31 ± 0.2
25 | CCUUAGCAAUAUUACGCAGA | -3.11 ± 0.36 | -2.72 ± 0.3

Row | Sequence | self-splicing fitness (ln) (30 °C) | self-splicing fitness (ln) (37 °C)
26 | CUUUAGCAAUAUUACGAGUA | -2.85 ± 0.22 | -3.63 ± 0.42
27 | AUUUAGCAAUAUUACGUUAC | -2.76 ± 0.33 | -2 ± 0.27
28 | AUGAAGCAAUAUUACGAACG | -0.583 ± 0.094 | 0.0323 ± 0.12
29 | CGACAGCAAUAUUACGGGCG | -1.71 ± 0.17 | -1.81 ± 0.19
30 | UCCCAGCAAUAUUACGGUGC | -2.41 ± 0.13 | -1.51 ± 0.13
31 | AAUGAGCAAUAUUACGGUUC | -2.91 ± 0.15 | -2.48 ± 0.18
32 | UAUAAGCAAUAUUACGCUCU | -0.357 ± 0.11 | 0.0533 ± 0.16
33 | UUCCAGCAAUAUUACGGUUA | 0.496 ± 0.085 | 0.423 ± 0.087
34 | GGCUAGCAAUAUUACGCCGA | -1.8 ± 0.28 | -1.05 ± 0.25
35 | GCUUAGCAAUAUUACGCAUC | -1.04 ± 0.069 | -0.56 ± 0.091
36 | CGGCAGCAAUAUUACGGGUG | -0.564 ± 0.046 | -0.449 ± 0.06
37 | UAGGAGCAAUAUUACGGGAC | -3.63 ± 0.4 | -2.85 ± 0.47
38 | CCAGAGCAAUAUUACGGUUU | -4.44 ± 0.39 | -3.07 ± 0.32
39 | UACCAGCAAUAUUACGAUGA | -0.0346 ± 0.056 | -0.119 ± 0.065
40 | GCCUAGCAAUAUUACGCCUA | – | -2.79 ± 0.43
41 | UGUCAGCAAUAUUACGAACG | -0.137 ± 0.086 | 0.589 ± 0.11
42 | ACCUAGCAAUAUUACGGCGU | -0.278 ± 0.056 | 0.12 ± 0.07
43 | UUGCAGCAAUAUUACGUGCU | -3.19 ± 0.22 | -1.84 ± 0.22
44 | AAGGAGCAAUAUUACGUUGG | -4.4 ± 0.27 | -2.5 ± 0.25
45 | UAAUAGCAAUAUUACGCGAA | -3.51 ± 0.24 | -0.873 ± 0.14
46 | CUGCAGCAAUAUUACGAAAC | – | -1.87 ± 0.37
47 | AACUAGCAAUAUUACGCAAC | -3.49 ± 0.21 | -2.08 ± 0.18
48 | UUUGAGCAAUAUUACGAUGC | – | -1.81 ± 0.4
49 | UGCAAGCAAUAUUACGUCGG | -2.03 ± 0.086 | -0.943 ± 0.1
50 | CUUAAGCAAUAUUACGCCUG | -2.06 ± 0.1 | -0.858 ± 0.089

Row | Sequence | self-splicing fitness (ln) (30 °C) | self-splicing fitness (ln) (37 °C)
51 | GUCAAGCAAUAUUACGGCCU | -3.17 ± 0.22 | -1.34 ± 0.21
52 | UCGAAGCAAUAUUACGCAGU | -0.00368 ± 0.23 | -0.973 ± 0.47
53 | GAAGAGCAAUAUUACGUUUA | -1.61 ± 0.15 | -2.56 ± 0.2
54 | CCCAAGCAAUAUUACGACGG | -3.7 ± 0.21 | -1.61 ± 0.16
55 | GGUCAGCAAUAUUACGCCUG | -2.9 ± 0.2 | -0.721 ± 0.12
56 | UUAAAGCAAUAUUACGCCCC | -0.451 ± 0.27 | 0.901 ± 0.38
57 | UAACAGCAAUAUUACGAUAC | -2.65 ± 0.39 | -2.7 ± 0.48
58 | GCAGAGCAAUAUUACGCCAA | -2.73 ± 0.38 | -2.72 ± 0.44
59 | GCGAAGCAAUAUUACGAGAC | -2.67 ± 0.26 | -1.46 ± 0.25
60 | CACUAGCAAUAUUACGCCUC | – | -1.72 ± 0.23
61 | UCGAAGCAAUAUUACGUAUC | -3.96 ± 0.35 | –
62 | GCCCAGCAAUAUUACGGUAG | -4.78 ± 0.23 | -2.51 ± 0.19
63 | UAAUAGCAAUAUUACGCCUA | -0.175 ± 0.16 | 0.0899 ± 0.19
64 | GUUGAGCAAUAUUACGGUGU | -2.22 ± 0.2 | -1.1 ± 0.33
65 | CAGCAGCAAUAUUACGGGUC | -2.33 ± 0.14 | -1.96 ± 0.19
66 | CACCAGCAAUAUUACGAAUG | -0.784 ± 0.039 | 0.236 ± 0.058
67 | AAAGAGCAAUAUUACGGGAC | -3.56 ± 0.38 | -1.96 ± 0.22
68 | CCACAGCAAUAUUACGGAGU | -3.32 ± 0.16 | -1.32 ± 0.14
69 | AUAGAGCAAUAUUACGGUUG | -3.21 ± 0.23 | -1.92 ± 0.22
70 | AGGCAGCAAUAUUACGGACU | -0.344 ± 0.079 | 0.146 ± 0.093
71 | CACAAGCAAUAUUACGUCAG | -1.25 ± 0.051 | -0.508 ± 0.064
72 | CGCCAGCAAUAUUACGCAUA | -3.34 ± 0.24 | -1.86 ± 0.2
73 | CUCGAGCAAUAUUACGCCGA | -1.32 ± 0.19 | -2.42 ± 0.24
74 | ACGGAGCAAUAUUACGUAAC | -3.72 ± 0.37 | -1.66 ± 0.22
75 | AAAGAGCAAUAUUACGAAAG | -3.63 ± 0.24 | -3.18 ± 0.24

Row | Sequence | self-splicing fitness (ln) (30 °C) | self-splicing fitness (ln) (37 °C)
76 | AGGCAGCAAUAUUACGACGA | -0.555 ± 0.12 | -0.00249 ± 0.14
77 | CGGCAGCAAUAUUACGCUAG | -2.62 ± 0.17 | -1.34 ± 0.18
78 | CUAUAGCAAUAUUACGGAAA | -2.82 ± 0.2 | -2.06 ± 0.42
79 | CAUCAGCAAUAUUACGCACG | -0.443 ± 0.086 | 0.189 ± 0.11
80 | GUGGAGCAAUAUUACGCCUC | -3.07 ± 0.3 | -1 ± 0.25
81 | CCUAAGCAAUAUUACGCCUA | -2.7 ± 0.21 | -2.24 ± 0.28
82 | CGGCAGCAAUAUUACGCCUA | -0.162 ± 0.17 | 0.427 ± 0.13
83 | GGCGAGCAAUAUUACGUUGG | -3.75 ± 0.32 | -2.92 ± 0.35
84 | UGUUAGCAAUAUUACGCUGC | -1.63 ± 0.18 | -2.44 ± 0.32
85 | GAUUAGCAAUAUUACGCCGU | -1.61 ± 0.15 | -0.986 ± 0.25
86 | AUACAGCAAUAUUACGUGUC | -4.39 ± 0.14 | -2.67 ± 0.13
87 | CUCAAGCAAUAUUACGAAGC | -3.4 ± 0.28 | -2.56 ± 0.35
88 | UGCAAGCAAUAUUACGAAAG | -2.6 ± 0.12 | -1.53 ± 0.13
89 | UAGCAGCAAUAUUACGGCGU | -0.605 ± 0.12 | 0.0421 ± 0.13
90 | UAGUAGCAAUAUUACGCCUU | -2.11 ± 0.12 | -0.556 ± 0.11
91 | GCCGAGCAAUAUUACGUUAA | -3.34 ± 0.27 | -1.78 ± 0.18
92 | AAUAAGCAAUAUUACGACAU | -0.117 ± 0.012 | 0.0514 ± 0.032
93 | GUGAAGCAAUAUUACGGGUC | -2.26 ± 0.21 | -2.21 ± 0.28
94 | AGUAAGCAAUAUUACGCUCG | -0.783 ± 0.17 | -0.584 ± 0.21
95 | CUCCAGCAAUAUUACGUUUG | -3.57 ± 0.12 | -2.1 ± 0.11
96 | AGUAAGCAAUAUUACGGUGG | -3.68 ± 0.2 | -1.66 ± 0.16
97 | CUUCAGCAAUAUUACGGCGC | -3.07 ± 0.13 | -3.29 ± 0.19
